The text below walks through data of US20250197490A1 (HBM ALPHA THERAPEUTICS, published 2025).

In general, EC50 (read off the curve) refers to the midpoint of the concentration-response curve. A word on the EC50: it is the concentration that produces a half-maximal response.

In assay [1] the target is T1, biotinylated CRH (human and mouse, UniProt P01143 145-185 (rat entry), not fully specified; biotin; which end is not stated for the result (NT-biotin and CT-biotin forms were used)).
T1 construct: also called biotin-CRH; CRH (NT biotin)
T1 peptide: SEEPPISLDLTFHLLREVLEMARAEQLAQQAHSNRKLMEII
Briefly: ELISA, CRH (NT biotin). In general terms: An ELISA detects its analyte on a solid surface through an enzyme-linked reagent.

Assay [2] deals with T2, human UCN2 peptide, biotinylated (human, UniProt Q96RP3 72-109, limits assumed, biotin at N- or C-terminus).
T2 construct: also called hUCN2 (NT Biotin); hUCN2 (CT Biotin)
T2 peptide (looked up): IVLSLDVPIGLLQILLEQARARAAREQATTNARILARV
Kind of assay: ELISA, hUCN2 (NT biotin) and (CT biotin). As for the experimental part:
(§1) Streptavidin (Thermo, Cat: 21125) was diluted in PBS with a concentration of 2 μg/mL. 100 μL of diluted streptavidin was added per well to ELISA microplates, and the plates were incubated overnight at 4° C. Plates were blocked with ELISA blocking solution (containing 2% w/v BSA, 0.05% (v/v) Tween-20, pH 7.4 PBS buffer) at 37° C. for 1 hour, and then incubated with either 1 μg/mL hUCN1 (NT Biotin), hUCN1 (CT Biotin), hUCN2 (NT Biotin), hUCN2 (CT Biotin), hUCN3 (NT Biotin), or hUCN3 (CT Biotin) for 1 hour at 37° C. […] Plates were subsequently washed and incubated with HRP-conjugated goat anti-human IgG (H+L) antibody (Jackson, Cat: 109-035-088) at 37° C. for 1 hour. 100 μl of TMB Substrate (Biopanda, Cat: TMB-S-003) was added, and the plates were incubated at room temperature for 15 minutes. 100 μL of ELISA stopping solution (Solarbio, Cat #: C1058) was then added to terminate the reaction, and the OD450 nm was determined by an ELISA plate reader (Molecular Devices, Spectra max 384 plus).

Assay [3] deals with T3, human UCN1 peptide, biotinylated (human, UniProt P55089 83-122, biotin at N- or C-terminus).
T3 construct: also called hUCN1 (NT Biotin); hUCN1 (CT Biotin)
T3 peptide (looked up): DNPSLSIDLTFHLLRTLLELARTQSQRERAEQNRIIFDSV
Briefly: ELISA, hUCN1 (CT biotin). Here is the method:
(§2) Streptavidin (Thermo, Cat: 21125) was diluted in PBS to a concentration of 2 μg/ml. 100 μl of diluted streptavidin was added per well to ELISA microplates, and the plates were incubated overnight at 4° C. […] Subsequently, plates were washed and incubated with HRP-conjugated goat anti-human IgG (H+L) antibody (Jackson, Cat: 109-035-088) at 37° C. for 1 hour. 100 μL of 3,3′,5,5′-tetramethylbenzidine (TMB) substrate (Biopanda, Cat: TMB-S-003) was added, and the plates were incubated at room temperature for 15 minutes. 100 μL of ELISA stopping solution (Solarbio, Cat #: C1058) was added to terminate the reaction, and the optical density at 450 nm (OD450 nm) was determined by an ELISA plate reader (Molecular Devices, Spectra max 384 plus).

The target of assay [4] is T3, human UCN1 peptide, biotinylated. Briefly: ELISA, hUCN1 (NT biotin). As for the experimental part:
as §2

The target of assay [5] is T1, biotinylated CRH. Kind of assay: ELISA, CRH (CT biotin). Here is the method: as §2
In assay [6] the target is T4, corticotropin-releasing hormone (CRH) peptide (human and mouse, UniProt P01143 145-185 (rat entry), not fully specified).
T4 peptide: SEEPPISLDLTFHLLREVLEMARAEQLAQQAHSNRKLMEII
Briefly: cell-based or functional assay.

Assay [7] concerns the target T1, biotinylated CRH. Kind of assay: ELISA, CRH (NT biotin). As for the experimental part:
as §2

Assay [8] has as its target T5, CRH (C-Terminal Region, NT Biotin) (N-terminal Biotin-K; C-terminal NH2).
T5 construct: central region plus C-terminal region of CRH; also called C-Terminal CRH; C-Ter-CRH
T5 peptide: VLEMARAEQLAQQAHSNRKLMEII
Briefly: ELISA, CRH C-terminal region peptide (NT biotin). As for the experimental part:
as §2

In assay [9] the target is T6, CRH (Central Region, CT Biotin) (C-terminal K-Biotin).
T6 construct: also called Central CRH
T6 peptide: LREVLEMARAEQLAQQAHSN
Briefly: ELISA, CRH central region peptide (CT biotin). As for the experimental part: as §2

Assay [10] concerns the target T7, N-Terminal CRH peptide (N-terminal region plus central region, CT biotin) (human and mouse, C-terminal K-Biotin).
T7 construct: also called N-Ter-CRH
T7 peptide: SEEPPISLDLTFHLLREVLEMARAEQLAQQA
Briefly: ELISA, N-Ter-CRH (CT-biotin) on streptavidin. Here is the method:
as §2

Assay [11] concerns the target T8, human UCN3 peptide, biotinylated (human, UniProt Q969E3 120-157, biotin at N- or C-terminus).
T8 construct: also called hUCN3 (NT Biotin); hUCN3 (CT Biotin)
T8 peptide (looked up): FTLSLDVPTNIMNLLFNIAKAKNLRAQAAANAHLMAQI
Kind of assay: ELISA, hUCN3 (NT biotin) and (CT biotin). Here is the method:
as §1

The target of assay [12] is T9, CRH (Central Region, NT Biotin) (N-terminal Biotin-K; C-terminal NH2).
T9 construct: also called Central CRH
T9 peptide: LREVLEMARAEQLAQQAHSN
Kind of assay: ELISA, CRH central region peptide (NT biotin). Here is the method:
as §2

Assay [13] concerns the target T3, human UCN1 peptide, biotinylated. Kind of assay: ELISA, hUCN1 (NT biotin) and (CT biotin), mAb at 100 and 10 nM. Here is the method: as §1
The target of assay [14] is T4, corticotropin-releasing hormone (CRH) …. Kind of assay: cell-based or functional assay.

B1: PR301790 (antibody, human IgG1, kappa, V domains shown)
VH: EMKLEESGGGLVQPGGSMKLSCVASGFTFSNYWMNWVRQSPEKGLEWVAEIRLKSNNYATHYAESVKGRFTISRDDSKSSVYLQMNNLRAEDTGIYYCTIGTLVYWGQGTLVTVSA
VL: DIVLTQSPASLAVSLGQRATISCRASQSVSTSSYNYMHWYQQKPGQPPKLLIKFASNLESGVPARFSGSGSGTDFTLNIHPVEEEDTATFYCQHSWEIPYTFGGGTKLEIKR
As for B1, in the assay with biotinylated CRH [1], the binding result is “binds”.

B2: PR301803 (antibody, human IgG1, kappa, V domains shown)
VH: EVKLEESGGGLVQPGGSMKLSCVASGFTFNNYWMNWVRQSPEKGLEWVAEIRLKSNNYATHYAESLKGRFTISRDDSKSSVYLQMNNLRAEDTGIYYCTVGTLVYWGQGTLVTVSA
VL: DIVLTQSPASLVVSLGQRATISCRASQSVSTSTYNYMHWYQQKPGQPPKLLIKFASNLESGVPARFSGSGSGTDFTLNIHPVEEEDTATFYCQHSWEIPYTFGGGTKLEIKR
With B2, the binding result in the assay with biotinylated CRH [1] was “binds”.

B3: PR302309-11 (antibody, human IgG1, kappa, V domains shown)
VH: QIQLVQSGSELKKPGASVKVSCKASGYTFTNYGMNWVRQAPGQGLEWMGWINTYTGEPIYTDDFKGRFVFSLDTSVSTAYLQISSLKAEDTAVYYCSRSTMITTGGVFAYWGQGTLVTVSS
VL: DIVMTQTPLSSPVTLGQPASISCRSSQTIVHSDGNTYLEWLQQRPGQPPRLLIYKVSNRFSGVPDRFSGSGAGTDFTLKISRVEAEDVGVYYCFQGSHVPWTFGGGTKVEIKR
B3: the binding result in assay [2], in [8], in assay [9], in assay [11] and in assay [12] was “no binding (tested: 100 nM)” each time. The “EC50 (read off the curve)” value in assay [3] was roughly 0.4 nM; in [4], roughly 0.07 nM; with biotinylated CRH [5] it was roughly 0.03 nM; with biotinylated CRH [7], roughly 0.03 nM. Further, in [6], the “hCRHR1-Luc 0.5 nM CRH IC50” value worked out at 2.12 nM. In assay [10], the EC50 is 0.028 nM.

B4: PR301780 (antibody, human IgG1, kappa, V domains shown)
VH: QIQLVQSGPELKKPGETVKISCKASGYTFTNFGLNWVKQAPGKGLKWMGWINTYTGEPTYTDDFKGRFAFSLETSASTAYLQINNLKKEDTATYFCARGTYRDDGAWFAYWGQGTLVTVSA
VL: DVLMTQTPLSLPVSLGDQASISCRSSQIIVHSNGNTYLEWYLQKPGQSPKLLIYKVSNRFSGVPDRFSGSGSGTDFTLKISRVEAEDLGVYHCFQGSHVPWTFGGGTKLEIKR
For the molecule B4, the binding result in the assay with biotinylated CRH [1] is given as “binds”.

B5: PR302341-34 (antibody, human IgG1, kappa, V domains shown)
VH: QVQLVQSGAEVKKPGASVKVSCKASGYTFTDYFMKWVRQAPGQGLEWMGVINPNQGDIFYNQKFKGRVTMTVDKSISTAYMELSRLRSDDTAVYYCARGTDRALFAYWGQGTLVTVSS
VL: DVVMTQSPLSLPVTLGQPASISCRSGQSIVHSDANTYLEWYQQRPGQSPRLLIYKVSNRFSGVPDRFSGSGSGTDFTLKISRVEAEDLGVYYCFQGSHIPWTFGGGTKVEIKR
Turning to B5, the binding result in assay [2], in assay [8], in [9] and in [12] was “no binding (tested: 100 nM)” each time. Further, the “EC50 (read off the curve)” value in assay [3] was roughly 0.03 nM; in [4] it was roughly 0.02 nM; with biotinylated CRH [5], roughly 0.03 nM; in the assay with biotinylated CRH [7], roughly 0.03 nM.

B6: PR302341-60 (antibody, human IgG1, kappa, V domains shown)
VH: QVQLVQSGAEVKKPGASVKVSCKASGYTFTDYFMKWVRQAPGQRLEWMGVINPNQGDIFYNQKFKGRVTITRDTSASTAYMELSSLRSEDTAVYYCARGTDRALFAYWGQGTLVTVSS
VL: DVVMTQSPLSLPVTLGQPASISCRSGQSIVHSDANTYLEWYQQRPGQSPRLLIYKVSNRFSGVPDRFSGSGSGTDFTLKISRVEAEDLGVYYCFQGSHIPWTFGGGTKVEIKR
B6: the binding result in assay [2] is “no binding (tested: 100 nM)”; in [13] it was “binds”.

B7: PR302341-55 (antibody, human IgG1, kappa, V domains shown)
VH: QVQLVQSGAEVKKPGASVKVSCKASGYTFTDYFMKWVRQAPGQRLEWMGVINPNNADIFYNQKFKGRVTITRDTSASTAYMELSSLRSEDTAVYYCARGTDRALFAYWGQGTLVTVSS
VL: DVVMTQSPLSLPVTLGQPASISCRSGQSIVHSDGNTYLEWYQQRPGQSPRLLIYKVSNRFSGVPDRFSGSGSGTDFTLKISRVEAEDLGVYYCFQGSHIPWTFGGGTKVEIKR
As to B7, the binding result in [2] was “no binding (tested: 100 nM)”; in assay [13], “binds”.

B8: PR302064 (antibody, human IgG1, kappa, V domains shown)
VH: EMQLVESGGGLVKPGGSLRLSCAASGFTFSNYWMNWVRQAPGKGLEWVAEIRLKSNNYATHYAESVKGRFTISRDDSKSTVYLQMNSLKTEDTAVYYCTVGTLVYWGQGTLVTVSS
VL: DIVLTQSPDSLAVSLGERATINCRASQSVSTSTYNYMHWFQQKPGQPPKLLIKFASNLESGVPDRFSGSGSGTDFTLTISSLQAEDTAVYYCQHSWEIPYTFGQGTKLEIKR
In the case of B8, the binding result in assay [2], in assay [8], in assay [9], in assay [11] and in assay [12] was “no binding (tested: 100 nM)” in each case. For the same molecule, the “EC50 (read off the curve)” value was roughly 0.2 nM in assay [3], roughly 0.1 nM in assay [4], roughly 0.03 nM with biotinylated CRH [5] and roughly 0.03 nM with biotinylated CRH [7]. The “unlabelled nM value (Table 5 matrix; likely hCRHR1-Luc IC50 as in Tables 6-8)” value in [14] was 0.531 nM. Also, in assay [10], the concentration giving a half-maximal response (EC50) came out at 0.022 nM.
